± gives the uncertainty stated by the source.
Assay: protein stability index of a GFP-peptide fusion (yeast GPS) (PSI 1-4); higher = more stable; sorted into four equal gates, so the index is relative within each strain
In short: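 Tiled 17-residue peptides from yeast proteins were fused downstream of GFP on a plasmid that also expresses Cherry, and the pooled library was carried in yeast. Mid-log cultures grown in leucine-free medium were sorted into four equal gates by GFP/Cherry fluorescence ratio. Plasmids from each gate were PCR-amplified and Illumina-sequenced, and reads were assigned to strains by barcodes. Each peptide's protein stability index is the sum, over gates, of the gate's read frequency multiplied by its gate number.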

Sequence	protein stability index (doa10∆)	protein stability index (pdr5∆)	protein stability index (san1∆)	protein stability index (ubr1∆)
FDDLEVEELPTFHDYDM [RRP42]	2.6 ± 0.069	2.63 ± 0.064	2.79 ± 0.043	2.88 ± 0.043
EESSTGKSTADVKSSDS [YJL041W/NSP1]	–	3.35 ± 0.19	–	–
QIPHFNNKILEKCKEIN [BRR2]	1.28 ± 0.11	2.23 ± 0.12	1.88 ± 0.22	2.02 ± 0.14
KFFIMIVKGNIIDEIKC [POP4]	1.32 ± 0.055	1.47 ± 0.055	1.49 ± 0.094	1.66 ± 0.056
IFEAISLSDELNLDEIV [YJL039C/NUP192]	2.76 ± 0.067	2.73 ± 0.064	2.72 ± 0.042	2.87 ± 0.054
TNAFLDSLTRAVKDQQK [SNF2]	2.46 ± 0.072	2.47 ± 0.071	2.68 ± 0.049	2.56 ± 0.046
GRPRGRPKKVKLEGSEN [SNF2]	3.41 ± 0.19	3.21 ± 0.21	3.27 ± 0.098	3.65 ± 0.17
IDSPELLSLISTTAALQ [RPN7]	2.23 ± 0.04	2.65 ± 0.041	2.32 ± 0.041	2.45 ± 0.032
ASISLAIGYPTLPSVGH [RPP0]	2.66 ± 0.075	2.73 ± 0.059	2.86 ± 0.11	2.62 ± 0.049
PGGASGLGVLTHRNKDG [FAS1]	3.35 ± 0.067	2.74 ± 0.081	3.24 ± 0.076	3.44 ± 0.069
INKLMEKDFQVNKEIKP [SIR4]	3.4 ± 0.083	3.31 ± 0.069	3.16 ± 0.069	3.31 ± 0.057
ESFPDDIPLAKALDNAC [CDC53]	2.58 ± 0.07	2.97 ± 0.058	2.67 ± 0.055	2.8 ± 0.045
SVRRSGALDVEGLCIVA [RRP45]	2.47 ± 0.15	3.06 ± 0.11	3 ± 0.11	2.83 ± 0.18
MKLTDLLSLINSTHLLP [SNF12]	2.56 ± 0.052	2.57 ± 0.04	2.94 ± 0.05	2.58 ± 0.036
SLYKVSFLEKPKFAIQD [YMR129W/POM152]	2.93 ± 0.11	2.68 ± 0.12	2.77 ± 0.071	2.53 ± 0.13
DFIKFDAGKLVYVTGGR [RPS4A]	2.22 ± 0.13	2.1 ± 0.086	2.41 ± 0.1	2.36 ± 0.094
TRFPPAVFYTPKELGGL [PRP8]	3.19 ± 0.076	3.08 ± 0.07	3.25 ± 0.068	3.04 ± 0.063
MAGLKDVVTREYTINLH [RPL31A]	3.02 ± 0.15	3.06 ± 0.14	3.01 ± 0.08	3.29 ± 0.16
DLTNNPQDDDSQSKMMS [MTR3]	3.17 ± 0.084	3.39 ± 0.073	3.09 ± 0.074	3.31 ± 0.055
LMDDMSDISDLDDLGFL [RPN3]	1.77 ± 0.062	1.81 ± 0.059	1.92 ± 0.091	1.77 ± 0.04
FAFLNAMFFGNYGSSLQ [AAR2]	2.9 ± 0.064	2.5 ± 0.075	2.91 ± 0.072	2.56 ± 0.069
EEGRAIPGEYVTYALSG [RPS21A]	–	–	2.81 ± 0.19	2.96 ± 0.16
MLKPNIIFQQLLFWTDP [YCG1]	2.42 ± 0.099	2.28 ± 0.076	1.21 ± 0.093	1.68 ± 0.12
RQFLHELRRPGVDNLRR [RPO31]	1.27 ± 0.078	1.37 ± 0.097	1.25 ± 0.23	1.64 ± 0.093
ATLSKLKKKYQIILDRF [SIR3]	2.32 ± 0.065	1.95 ± 0.073	1.75 ± 0.12	1.71 ± 0.061
PMNAPTPAMIPYPGSPM [DSN1]	2.79 ± 0.044	2.76 ± 0.05	2.99 ± 0.042	3.01 ± 0.034
KTLKLARAPKYASKAVP [RPL25]	2.29 ± 0.06	2.31 ± 0.056	2.53 ± 0.067	2.19 ± 0.035

Sequence	protein stability index (doa10∆)	protein stability index (pdr5∆)	protein stability index (san1∆)	protein stability index (ubr1∆)
KDLSNYRKTEGIFEKAK [YMR153W/NUP53]	3.01 ± 0.11	2.75 ± 0.1	3.04 ± 0.1	2.74 ± 0.086
HILRISFLDRKRAKEFI [SIN4]	2.42 ± 0.079	2.67 ± 0.078	2.05 ± 0.063	2.4 ± 0.049
MERLDGDYNNTVYSSEQ [SMC3]	2.94 ± 0.11	3.18 ± 0.12	3.25 ± 0.071	3.16 ± 0.042
ISLLALPHSPLWELALA [YML031W/NDC1]	1.35 ± 0.086	1.49 ± 0.061	1.34 ± 0.11	1.7 ± 0.042
RKNYMHVKNFGFANSLT [YML031W/NDC1]	1.18 ± 0.11	1.9 ± 0.11	2.3 ± 0.14	2.85 ± 0.063
SEYMVFGKLAFPTRLGQ [YJL039C/NUP192]	3.01 ± 0.073	2.52 ± 0.062	2.75 ± 0.067	2.15 ± 0.059
AEGQTNSISDFLGEQVN [RPN1]	3.06 ± 0.079	2.89 ± 0.067	2.98 ± 0.077	3.12 ± 0.059
TKEQYAAESKKYRQTKL [RPL5]	3.17 ± 0.14	3.28 ± 0.18	3.37 ± 0.094	3.12 ± 0.1
KWGRNQPVNINLDSSIT [YMR129W/POM152]	2.54 ± 0.094	2.7 ± 0.076	2.71 ± 0.099	2.52 ± 0.07
TQYATSQKTKTIQSDLN [SMC2]	2.21 ± 0.088	2.34 ± 0.072	2.1 ± 0.11	2.85 ± 0.05
FSNVNELQEKNVELLNC [YIL149C/MLP2]	3.09 ± 0.082	3.29 ± 0.13	3.06 ± 0.083	3.1 ± 0.075
RAYLSHSNRCIVFSKKE [CSN12]	1.41 ± 0.075	1.56 ± 0.062	1.13 ± 0.15	1.15 ± 0.036
MTSIGTGYDLSNSVFSP [PRE10]	2.77 ± 0.085	2.91 ± 0.11	2.23 ± 0.27	2.8 ± 0.12
LDLIPHSSSVFKGTDFV [SRB4]	2.42 ± 0.062	2.74 ± 0.057	2.89 ± 0.068	2.4 ± 0.041
DKSIDTSSLQLYKFQNF [YML103C/NUP188]	2.67 ± 0.064	3.05 ± 0.086	2.7 ± 0.055	2.99 ± 0.055
TDDVRLAPELNQAIWKR [RPL31A]	3.28 ± 0.1	3.3 ± 0.077	3.18 ± 0.079	3.12 ± 0.048
QQQVLNKLRQQAIAKNN [SNF5]	1.13 ± 0.066	1.2 ± 0.072	1.11 ± 0.13	1.05 ± 0.052
GLCMLGTGKPEAIHDMF [RPN2]	2.75 ± 0.15	3.46 ± 0.29	3.19 ± 0.064	3.18 ± 0.075
NWWHSEFEIPVSFNGFK [BRR2]	1.49 ± 0.098	1.32 ± 0.068	1.14 ± 0.17	1.34 ± 0.058
DAHKAEQEDIIEKTESV [SWI3]	3.19 ± 0.086	3.32 ± 0.1	3.38 ± 0.046	3.21 ± 0.081
TFSSSISTYISTDELVG [POP8]	3.02 ± 0.087	2.93 ± 0.057	2.9 ± 0.072	3.02 ± 0.069
YIGEFEYIDDHRSGKIV [RPS22A]	2.9 ± 0.057	3.13 ± 0.061	2.99 ± 0.051	3.01 ± 0.043
MTMNGIPVKLLNEAQGH [SMD3]	3.2 ± 0.12	3.39 ± 0.16	2.76 ± 0.091	3.1 ± 0.11
HAIIIFGYPETIANSII [YMR153W/NUP53]	1.91 ± 0.078	2.04 ± 0.065	2.17 ± 0.098	2.92 ± 0.046
VILGDANSSTIRVTNSF [RPN8]	3.01 ± 0.092	2.94 ± 0.072	2.89 ± 0.066	3.06 ± 0.052
VDSKTKEPVDDKDVKAK [FAS2]	2.31 ± 0.24	–	2.28 ± 0.13	3.28 ± 0.16

From the supplement of paper PMC9732359
